Results reported in patent US20160272706A1.

What was measured:
[1] = molecular target: cynomolgus monkey FcRn (cynomolgus monkey) (UniProt Q8SPV9); assay: SPR (BIAcore 3000), IgG immobilised on CM5, FcRn injected at pH 6, steady-state 1:1 fit
[2] = molecular target: human FcRn protein (human) (UniProt P55899); assay: as above
[3] = molecular target: cynomolgus monkey FcRn (cynomolgus monkey) (UniProt Q8SPV9); assay: SPR (BIAcore 3000), IgG immobilised on CM5, FcRn injected; binding at pH 7.4 as a percentage of that at pH 6
[4] = molecular target: human FcRn protein (human) (UniProt P55899); assay: as above

cynomolgus monkey FcRn (cynomolgus monkey), sequence (Q8SPV9 24-290 limits assumed, chain 1 of 2): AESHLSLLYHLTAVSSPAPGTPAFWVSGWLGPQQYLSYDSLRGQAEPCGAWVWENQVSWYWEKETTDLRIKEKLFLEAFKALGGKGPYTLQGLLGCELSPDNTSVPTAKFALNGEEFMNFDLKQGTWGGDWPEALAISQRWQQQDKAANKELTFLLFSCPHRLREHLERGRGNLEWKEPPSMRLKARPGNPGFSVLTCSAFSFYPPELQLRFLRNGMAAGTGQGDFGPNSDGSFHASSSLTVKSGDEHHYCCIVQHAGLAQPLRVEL
cynomolgus monkey FcRn (cynomolgus monkey), sequence (Q8SPW0 21-119 limits assumed, chain 2 of 2, further chain): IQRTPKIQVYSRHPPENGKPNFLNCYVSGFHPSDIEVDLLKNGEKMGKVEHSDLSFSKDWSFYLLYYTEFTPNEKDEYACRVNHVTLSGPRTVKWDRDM

- Kd [1]: 1.86 µM
- Kd [2]: 2.04 µM
- pH7.4/pH6 [3]: 1%
- pH7.4/pH6 [4]: 1%
Substance: NIP228 (antibody)
